In IntAct's records for PubMed 16698552:

B1: Eukaryotic translation initiation factor 4 gamma 1 (Homo sapiens), Q04637-8 (parent)
chain: MNKAPQSTGPPPAPSPGLPQPAFPPGQTAPVVFSTPQATQMNTPSQPRQHFYPSRAQPPSSAASRVQSAAPARPGPAAHVYPAGSQVMMIPSQISYPASQGAYYIPGQGRSTYVVPTQQYPVQPGAPGFYPGASPTEFGTYAGAYYPAQGVQQFPTGVAPTPVLMNQPPQIAPKRERKTIRIRDPNQGGKDITEEIMSGARTASTPTPPQTGGGLEPQANGETPQVAVIVRPDDRSQGAIIADRPGLPGPEHSPSESQPSSPSPTPSPSPVLEPGSEPNLAVLSIPGDTMTTIQMSVEESTPISRETGEPYRLSPEPTPLAEPILEVEVTLSKPVPESEFSSSPLQAPTPLASHTVEIHEPNGMVPSEDLEPEVESSPELAPPPACPSESPVPIAPTAQPEELLNGAPSPPAVDLSPVSEPEEQAKEVTASMAPPTIPSATPATAPSATSPAQEEEMEEEEEEEEGEAGEAGEAESEKGGEELLPPESTPIPANLSQNLEAAAATQVAVSVPKRRRKIKELNKKEAVGDLLDAFKEANPAVPEVENQPPAGSNPGPESEGSGVPPRPEEADETWDSKEDKIHNAENIQPGEQKYEYKSDQWKPLNLEEKKRYDREFLLGFQFIFASMQKPEGLPHISDVVLDKANKTPLRPLDPTRLQGINCGPDFTPSFANLGRTTLSTRGPPRGGPGGELPRGPQAGLGPRRSQQGPRKEPRKIIATVLMTEDIKLNKAEKAWKPSSKRTAADKDRGEEDADGSKTQDLFRRVRSILNKLTPQMFQQLMKQVTQLAIDTEERLKGVIDLIFEKAISEPNFSVAYANMCRCLMALKVPTTEKPTVTVNFRKLLLNRCQKEFEKDKDDDEVFEKKQKEMDEAATAEERGRLKEELEEARDIARRRSLGNIKFIGELFKLKMLTEAIMHDCVVKLLKNHDEESLECLCRLLTTIGKDLDFEKAKPRMDQYFNQMEKIIKEKKTSSRIRFMLQDVLDLRGSNWVPRRGDQGPKTIDQIHKEAEMEEHREHIKVQQLMAKGSDKRRGGPPGPPISRGLPLVDDGGWNTVPISKGSRPIDTSRLTKITKPGSIDSNNQLFAPGGRLSWGKGSSGGSGAKPSDAASEAARPATSTLNRFSALQQAVPTESTDNRRVVQRSSLSRERGEKAGDRGDRLERSERGGDRGDRLDRARTPATKRSFSKEVEERSRERPSQPEGLRKAASLTEDRDRGRDAVKREAALPPVSPLKAALSEEELEKKSKAIIEEYLHLNDMKEAVQCVQELASPSLLFIFVRHGVESTLERSAIAREHMGQLLHQLLCAGHLSTAQYYQGLYEILELAEDMEIDIPHVWLYLAELVTPILQEGGVPMGELFREITKPLRPLGKAASLLLEILGLLCKSMGPKKVGTLWREAGLSWKEFLPEGQDIGAFVAEQKVEYTLGEESEAPGQRALPSEELNRQLEKLLKEGSSNQRVFDWIEANLSEQQIVSNTLVRALMTAVCYSAIIFETPLRVDVAVLKARAKLLQKYLCDEQKELQALYALQALVVTLEQPPNLLRMFFDALYDEDVVKEDAFYSWESSKDPAEQQGKGVALKSVTAFFKWLREAEEESDHN

Variants of: B1
Settings: with if4g1_human EIF4G1, Q04637

| effect of a mutation on the interaction | Variant |
| --- | --- |
| disrupting interaction | I1278A;F1279A;V1280A |
